Legend:
SRY HMG box WT [1] = target: T1, SRY HMG box WT (human, UniProt Q05066 57-141); assay: steady-state FRET; reference; Kd values in Table S7 not in material; FRET: 10 mM potassium phosphate, 10 mM Tris-HCl, 140 mM KCl, pH 8.0, 15 and 37 C, 25 nM DNA (Kd); sf-FRET 1 uM complex + 20 uM unlabelled DNA at 10, 15, 25, 37; settings: protein: recombinant; label: 5'-fluorescein (upper strand); 5'-TAMRA (lower strand), hexanyl linkers; blunt
SRY HMG box Y72W [2] = target: T2, SRY HMG box Y72W (human, UniProt Q05066 57-141, Y127W); assay: steady-state FRET; stopped-flow FRET; high affinity retained; slight koff increase; FRET: 10 mM potassium phosphate, 10 mM Tris-HCl, 140 mM KCl, pH 8.0, 15 and 37 C, 25 nM DNA (Kd); sf-FRET 1 uM complex + 20 uM unlabelled DNA at 10, 15, 25, 37; settings: protein: recombinant; label: 5'-fluorescein (upper strand); 5'-TAMRA (lower strand), hexanyl linkers; blunt
T2 sequence (Q05066 57-141 Y127W): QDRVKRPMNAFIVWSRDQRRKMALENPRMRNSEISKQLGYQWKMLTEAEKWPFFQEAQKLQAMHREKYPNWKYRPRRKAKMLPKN

SRY HMG box Y72C = SRY HMG box Y72C (human, UniProt Q05066 57-141, Y127C); assay: stopped-flow FRET; near-native affinity (Kd from companion paper); koff 26(+/-1.3)-fold faster than WT at 10 C; FRET: 10 mM potassium phosphate, 10 mM Tris-HCl, 140 mM KCl, pH 8.0, 15 and 37 C, 25 nM DNA (Kd); sf-FRET 1 uM complex + 20 uM unlabelled DNA at 10, 15, 25, 37; settings: protein: recombinant; label: 5'-fluorescein (upper strand); 5'-TAMRA (lower strand), hexanyl linkers; blunt
Chain of SRY HMG box Y72C (Q05066 57-141 Y127C): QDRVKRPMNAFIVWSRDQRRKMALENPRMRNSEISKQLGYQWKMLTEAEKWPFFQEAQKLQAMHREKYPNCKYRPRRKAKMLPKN

SRY HMG box Y72H = SRY HMG box Y72H (human, UniProt Q05066 57-141, Y127H); assay: stopped-flow FRET; near-native affinity (Kd from companion paper); koff 14(+/-0.38)-fold faster than WT at 10 C; FRET: 10 mM potassium phosphate, 10 mM Tris-HCl, 140 mM KCl, pH 8.0, 15 and 37 C, 25 nM DNA (Kd); sf-FRET 1 uM complex + 20 uM unlabelled DNA at 10, 15, 25, 37; settings: protein: recombinant; label: 5'-fluorescein (upper strand); 5'-TAMRA (lower strand), hexanyl linkers; blunt
Chain of SRY HMG box Y72H (Q05066 57-141 Y127H): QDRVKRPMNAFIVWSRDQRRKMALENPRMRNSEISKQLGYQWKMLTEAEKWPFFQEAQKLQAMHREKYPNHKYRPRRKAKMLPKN

SRY HMG box Y72F [3] = target: T3, SRY HMG box Y72F (human, UniProt Q05066 57-141, Y127F); assay: steady-state FRET; stopped-flow FRET; native-like affinity; koff about 4-fold faster than WT at 37 C, compensated by kon; FRET: 10 mM potassium phosphate, 10 mM Tris-HCl, 140 mM KCl, pH 8.0, 15 and 37 C, 25 nM DNA (Kd); sf-FRET 1 uM complex + 20 uM unlabelled DNA at 10, 15, 25, 37; settings: protein: recombinant; label: 5'-fluorescein (upper strand); 5'-TAMRA (lower strand), hexanyl linkers; blunt
T3 sequence (Q05066 57-141 Y127F): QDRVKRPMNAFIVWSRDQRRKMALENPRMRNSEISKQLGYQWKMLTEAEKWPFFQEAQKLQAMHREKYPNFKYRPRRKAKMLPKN

SRY HMG box Y72A = SRY HMG box Y72A (human, UniProt Q05066 57-141, Y127A); assay: CD; 25 uM each; least shifted toward A-DNA; FRET: 10 mM potassium phosphate, 10 mM Tris-HCl, 140 mM KCl, pH 8.0, 15 and 37 C, 25 nM DNA (Kd); sf-FRET 1 uM complex + 20 uM unlabelled DNA at 10, 15, 25, 37; settings: protein: recombinant; blunt
Chain of SRY HMG box Y72A (Q05066 57-141 Y127A): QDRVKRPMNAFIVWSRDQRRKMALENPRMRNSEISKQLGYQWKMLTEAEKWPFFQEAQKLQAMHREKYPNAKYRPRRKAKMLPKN

SRY HMG box Y72W [4] = target: T2, SRY HMG box Y72W; assay: CD; 25 uM each; A-form features in bound DNA; FRET: 10 mM potassium phosphate, 10 mM Tris-HCl, 140 mM KCl, pH 8.0, 15 and 37 C, 25 nM DNA (Kd); sf-FRET 1 uM complex + 20 uM unlabelled DNA at 10, 15, 25, 37; settings: protein: recombinant; blunt
SRY HMG box Y72F [5] = target: T3, SRY HMG box Y72F; assay: NMR (1H imino, NOESY, 15N HSQC); CD; 1:1, 25 C, 10 mM K-phosphate pH 7.4, 50 mM KCl (NMR); FRET: 10 mM potassium phosphate, 10 mM Tris-HCl, 140 mM KCl, pH 8.0, 15 and 37 C, 25 nM DNA (Kd); sf-FRET 1 uM complex + 20 uM unlabelled DNA at 10, 15, 25, 37; settings: protein: recombinant; blunt
SRY HMG box WT [6] = target: T1, SRY HMG box WT; assay: as above; settings: protein: recombinant; blunt

Measured: binding result

T1 sequence (Q05066 57-141): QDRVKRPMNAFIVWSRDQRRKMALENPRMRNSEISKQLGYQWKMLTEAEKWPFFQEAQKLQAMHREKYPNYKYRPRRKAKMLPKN

B1: 15-bp SRY site, FRET-labelled (dsDNA)
DNA 1: TCGGTGATTGTTCAG
DNA 2: CTGAACAATCACCGA
binds: SRY HMG box WT [1] | SRY HMG box Y72W [2] | SRY HMG box Y72C | SRY HMG box Y72H | SRY HMG box Y72F [3]

B2: 15-bp SRY site, unlabelled (dsDNA)
DNA 1: TCGGTGATTGTTCAG
DNA 2: CTGAACAATCACCGA
binds: SRY HMG box Y72A | SRY HMG box Y72W [4] | SRY HMG box Y72F [5] | SRY HMG box WT [6]
